B1: Rec102 (subunit of the purified S. cerevisiae Spo11 core complex) (natural protein)
chain: MARDITFLTVFLESCGAVNNDEAGKLLSAWTSTVRIEGPESTDSNSLYIPLLPPGMLKIKLNFKMNDRLVTEEQELFTKLREIVGSSIRFWEEQLFYQVQDVSTIENHVILSLKCTILTDAQISTFISKPRELHTHAKGYPEIYYLSELSTTVNFFSKEGNYVEISQVIPHFNEYFSSLIVSQLEFEYPMVFSMISRLRLKWQQSSLAPISYALTSNSVLLPIMLNMIAQDKSSTTAYQILCRRRGPPIQNFQIFSLPAVTYNK
notes: Rec102, S. cerevisiae; source: Sf9 cells, baculovirus coinfection with Spo11, Rec104 and Ski8; purified as the core complex (NiNTA, Anti-Flag M2, Superdex 200)
B2: Ski8 (subunit of the purified S. cerevisiae Spo11 core complex) (natural protein)
chain: MSKVFIATANAGKAHDADIFSVSACNSFTVSCSGDGYLKVWDNKLLDNENPKDKSYSHFVHKSGLHHVDVLQAIERDAFELCLVATTSFSGDLLFYRITREDETKKVIFEKLDLLDSDMKKHSFWALKWGASNDRLLSHRLVATDVKGTTYIWKFHPFADESNSLTLNWSPTLELQGTVESPMTPSQFATSVDISERGLIATGFNNGTVQISELSTLRPLYNFESQHSMINNSNSIRSVKFSPQGSLLAIAHDSNSFGCITLYETEFGERIGSLSVPTHSSQASLGEFAHSSWVMSLSFNDSGETLCSAGWDGKLRFWDVKTKERITTLNMHCDDIEIEEDILAVDEHGDSLAEPGVFDVKFLKKGWRSGMGADLNESLCCVCLDRSIRWFREAGGK
notes: Ski8, WD-repeat protein, S. cerevisiae; source: Sf9 cells, baculovirus coinfection with Spo11, Rec102 and Rec104; purified as the core complex (NiNTA, Anti-Flag M2, Superdex 200)
B3: Rec104 (subunit of the purified S. cerevisiae Spo11 core complex) (natural protein)
chain: MSIEEEDTNKITCTQDFLHQYFVTERVSIQFGLNNKTVKRINKDEFDKAVNCIMSWTNYPKPGLKRTASTYLLSNSFKKSATVSLPFILGDPVCMPKRVESNNNDTCLLYSDTLYDDPLIQRNDQAGDEIEDEFSFTLLRSEVNEIRPISSSSTAQILQSDYSALMYERQASNGSIFQFSSP
notes: Rec104, S. cerevisiae; source: Sf9 cells, baculovirus coinfection with Spo11, Rec102 and Ski8; purified as the core complex (NiNTA, Anti-Flag M2, Superdex 200)

How the values were obtained:
[1] = molecular target: T1, Spo11 (subunit of the purified S. cerevisiae Spo11 core complex) (S. cerevisiae, UniProt P23179 1-392); test: cryo-EM structure; core complex (~0.2 mg/ml) incubated with 23-bp hairpin DNA with a two-nucleotide 5' overhang, molar ratio 1:2, 25 mM HEPES-NaOH pH 7.5, 150 mM NaCl, 5 mM MgCl2, 2 mM DTT, 2% glycerol, 1 hr on ice; 3.7 Å; conditions: both partners purified
T1 construct: Spo11, S. cerevisiae; The complex was purified on NiNTA and anti-Flag resin; Surmise: the tags are on Spo11; source: Sf9 cells, baculovirus coinfection with Rec102, Rec104 and Ski8; purified as the core complex (NiNTA, Anti-Flag M2, Superdex 200)
T1 sequence: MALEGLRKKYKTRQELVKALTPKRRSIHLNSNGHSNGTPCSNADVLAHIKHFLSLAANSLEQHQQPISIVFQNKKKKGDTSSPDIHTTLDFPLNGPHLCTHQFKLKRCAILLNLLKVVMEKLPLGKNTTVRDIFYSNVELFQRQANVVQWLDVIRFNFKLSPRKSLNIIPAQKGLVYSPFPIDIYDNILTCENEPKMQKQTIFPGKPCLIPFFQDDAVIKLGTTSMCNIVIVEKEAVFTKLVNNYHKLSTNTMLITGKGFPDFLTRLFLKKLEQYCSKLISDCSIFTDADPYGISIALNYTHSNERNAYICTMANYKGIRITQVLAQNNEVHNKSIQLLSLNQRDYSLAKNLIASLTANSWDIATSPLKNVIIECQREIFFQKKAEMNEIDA

[2] = molecular target: B1; test: as above; conditions: both partners purified

| Binder | stoichiometry N [1] | stoichiometry N [2] |
| --- | --- | --- |
| B1 | 1 |  |
| B2 | 1 |  |
| B3 | 1 | 1 |

Source: paper doi:10.1101/2023.10.31.564985, “Cryo-EM structure of the Spo11 core complex bound to DNA” (bioRxiv, 2023)
